Assay: soluble on expression in E. coli; label from the status in PepcDB or PDB records

| Sequence | soluble on expression in E. coli |
| --- | --- |
| MEVYIPSFRYEESDLERGYTVFKIEVLMNGRKHFVEKRYSEFHALHKKLKKCIKTPEIPSKHVRNWVPKVLEQRRQGLETYLQAVILENEELPKLFLDFLNVRHLPSLPKAESCGSFDETESEESSKLSHQPVLLFLRDPYVLPAASDFPNVVIEGVLHGIFYPHLQPR | soluble |
| MDERIQALRKEVDRVNREILRLLSERGRLVQEIGRLQTELGLPHYDPKREEEMLAYLTAENPGPFPDETIRKLFKEIFKASLDLEERQDQKKFLYSKRHKPEPTRVRVKDVVFGEKPLLIAGPCSIESEEQIMATARFLAARGVRVLRGGAFKPRTSPYGFQGLGVEGLKLGRKAADAFGMVFVTEVMDTRDVEVVAEYADILQIGARNMQNFALLKEVGKARRPVLLKRGLSATMEEWFYAAEYILAQGNEQVILAERGIRTFERWTRNTLDLSAVALAKQETHLPVVVDVTHAAGRTDLLAPLARAALAVGADGVHVEVHPNPKVALSDNQQQMDFAQFDRFLEAIRDLLQAP | soluble |
| MGSDKIHHHHHHMTVQRREKGSSITRVLEIIEAISRAERPMSPAELAFLLDIPKPSIHRLLQQLEADNYVQINMRGLLVPGDRMHSIALGVLHSSRFKALRQAILKKLAETIGETCGIAIPDGIEMIYYDRVQTNWPLRVNLPVGSHTPVACTASGKLYLSSLPKERRHRIIGKLSLEKLARNTLIESESLEKELINIQANELGTDNEEFIDGMVACSVPIKDQDGKLFACLFTHAPVIRKSLDELLAFEPALRHAAIELGDLLKEQ | not soluble |
| MAFGVSHPVALDLEATSTDPSEAEVLEVAAVDGEGRVFHRYLATQRPLPPDHEVFQLTGIPYEEYEAKKVAPKEALEELLAFLGGRPLLGHNLLRYDLPLLQRHLEEAGLPRWQGEALDTLRLAHLLFPTPPGGLEGYRLGDLYAFLLGRPLEGAHRALNDAQATLAVFHRLLDRGRRALAQHPGLVRAWRELGLPEGHLFPEDEGLIKDLLAREADVEAFFVEKEGRPFPAPTDLGPDLLPKPRPAQRIKEFVQVAHGVAGQGLVGRERPLHEVLERGLRLAVGEAEEGAVEKEG | soluble |
| MPQSKFRLCSTKGTSMFSHIMIGSNDIEKSKVFYDAILSVLGYPAGVIDAKGRCLYINQDGVLGITKPVNGEPATHGNGMTIGFKVSSPELVEAWHAAGLANGGVACEDPPGIRTSGQRKMYLAYLRDPAGNKLCATHHMSTGN | not soluble |
| MGSDKIHHHHHHMLEFPALRPFLWSGRYNRPLMPLTYLTRIAQTPAPTFQEEARAELIARLWSDLGYVTERDEVGNVLTRITPPGTEGRPALLLAAHLDTVFGGQTDVTVHDEGQRLRGPGVGDNSASLAVVTAMLRDFRTAPPLLRRPLWVAANVGEEGLGDLRGAKHLLAAHRPQLGAFVAVDGYLGVAVTQAVGVRRYRAQFVGPGGHSWGDQAPSALHALGLAISGLYALHLPAQPRTTLNVGTAAGGNSVNSIAGQAELLLDLRSLGADELAALDSRAQDVLHRAARDAGVSLRLERVGDRPGGDLHTGALLGMAHAAAREVRVDLRLAASSTDANAAAPHVLPALAFGVYRGGNAHREDEWVEKRSLAPGLTALKRLVALYQAAPLA | not soluble |
| ASIPEGTDKNAPLTSIPGYIPNMLSPPKGDAFAARNQFALAIDFEHQPPFFDVTETHKAATWLLHPQAPKVEMPADVKEKIAITRKALAIKMPSQPVKQPKSNGNKKTKTKSAR | soluble |
| MGSDKIHHHHHHMKIDSEHLEILAVIVEKGGLTEGAEALGKSQPSVSRTMALLEERIGTPLFEAGRRPLRPTELGNQLARLGAKIRTQNLEASRLVQRYRQGQAGRLRLGGTPIFFDGVVAGMVAEFQNRHSDVQITQTYGYFEDLSAGLRSGALDLAILPMHANMIPADMQFTPLLAGRNVIVGSATHPLARRGAITLADIEPYSWIAPPPDSPLFRDLQRSLKSIGLDDFKVSFSGGTLASIFSVVLGSDSLTVLPYSVVFTHQRVIPLQALPLRIEHPDRQLGLLTATERMPPPALERFVAFVTEKFKHLSTRMEHEQQVTRRRG | not soluble |
| MIDVKSIILIVLDGLGDRPGEILGYRTPLQAAYHPNMNRMASLGMTGLMHPISPGIRSGSDTSHMSLLGYDPRVYYQGRGPFEALGLHMDMKPGDLAFRANFATNRDGKIIDRRAGRINAGNDQLASAISIDIGNYKFRVKSGVEHRAALVVSGPNLSDKISDSDPHSEGKPPEPIRPLDPSADSTAKIMNEYLKRIREILRDHPVNVEREKNGQIPGNELLIRSAGKVPDIPSFQEKNGITGACVVGSPWLKGLCRLLGMAVIDVPGAAGTINSNYTGKIKTAIDASKRYDFVLVNIKATDVAGHDGDYELKRRVIEDIDIAMEPLLGQSDRIVVAITGDHSTPCSVKDHSGDPVPIVFYTDGIYSDDVKLFDEVSAMKGALRITTQDVLNILMEMAGRAEKFGSLEHHHHHH | soluble |
| LSIPEDYQVRLQPTRVAGSYPLVRLEFTGATVDAPLMTQIARKYNIDVSILSSDLDYAGGVKFGMMVAEIFGNADDDEAAIRYLRENNVKVEVLGYVL | not soluble |
| QTLARVDLAYDDYDGIFDCEYAYKAWRDDCFRTAERGRGPVLHEDMTIASIGKDGKPIYTKEQYSIGSRTSRIYWRIYNKALEQKLANTGLVWYRSEVELKKWNVDVLLNPAGAYAALNDFAASISTAKKFNTKPVPTKRAALDLLASAHWMRRQYGKILNSLIEFHEGDIETVVGSLVRDGTKFTFPDTYG | not soluble |
| MGSDKIHHHHHHMSQHETPLYTGLKKHASRQPVQFHIPGHKKGAGMDPEFRQFIGENALSIDLINIEPLDDLHAPKGIIKQAQDLAAEAFGADHTFFSVQGTSGAIMTMVMAVCGPGDKIIIPRNVHKSIMTAIVFSGAVPIFIHPEIDNELGISHGITLESAKRALTEHPDAKGLLVINPTYFGVAADLKSIVELAHSFDVPVLVDEAHGVHIHFHDELPLSAMQAGADIAATSVHKLGGSLTQSSILNMREGLVSKDRVQSILSMLTTTSTSYLLLASLDVARKRLATEGRQLAEETLKLANQTRDRLNQIEGIYCVGSEILGSKAAYSYDPTKLIISVKSLGLTGHDVEKWLRESFNIEVELSDLYNILCIFTPGDSQNDADRLVEALTEIAQQMSEQDVTHQQTEVLLPEIPLLAMTPRDAFYANTEVIPLKEASGRIIAEFVMVYPPGIPIFIPGEIITEENISYIFKNLDAGLPVQGPEDSTLHMIRVIKEQKAIQ | not soluble |
| MTEEFNESMINDIKEGDKVTGEVQEIEEKQVIVAVNGAKFNGIIPISQLSTHHIDNPSDAVKVGDEIGAYVTKVEYDEENETGAYILSKRQLETEKSYEFLQEQLDNNQTIEAKVTEVVKGGLVVDVGQRGFVPASLISTDFIEDFSDFEGQVLKLKVEELDPANNRVILSRKAVEALENAEKKDELLESLNEGDVIEGKVARLTNFGAFVDIGGVDGLVHVSELSHEHVKSPEDVVSIGETVNVKIKSVDKDSERISLSIKDTLPSPFESIKGEFNEGDVIEGTVVRLANFGAFVEIKPGVQGLVHISEISHSHIGSPSEALEPGQVVSVKVLGVDVENERISLSIKATLPNENVIESDSETTQSYLDNGSDDEDNPTLGDVFGDKLKDFKFLEHHHHHH | soluble |
| ELKAKILHIPGDELINHNNQILEEYDHSQNTLIVGPNHVNSNIIHALTASEDTLFYKHNGIMPKALLRAMLQDITNSNQSSGGSTITQQLVKNQVLSNKKTYSRKANEIILATRVENLLSKDEIIYTYLNIVPFGHDYNGANITGISSASYSLFGIPAKDLNIAQSAYLIGLLQSPYGY | not soluble |
| MGSDKIHHHHHHMAATNYSQTIKNDTKDFITTAILQLLGIQKTFEKPKNLAQLTVSNVCKRAGVSRMAFYRNFESIDQVIYQYYQPQISQSFEIIRQNVSASSKIENQLKFFEEFKDDLFLSESQGYEPIIRQIYIEEIEKFYEKTNDEYFITFVANGVYALWRKWLMNGQDKSIEEIHELIRKIVTI | not soluble |
| MDPFDRPKNDNDPFEDALKRCHKILEKLDCPFVTGKEKDLDESDDMTENEDHDEMANEDDGIPSNEKKVETRKMDCTSGQLLAPKLPEKAESISSASESSEDSESVAILKYTVRTCYAIWKKRQKNSEIALKGLMIVLELCLSQPSARDDAFSALLETLGYNTVTFWKAVVPQIYNSDLSYATQYREALLFSLVLYDVNHSKNRLRELYAAVPGVRQSMLGIRAKQFGERYRHLQMKIARSRASSRMSSKMGSEENLPAMASMMNDVVFDEEPHTQSPLVDMSHDKQRVINVSNAPPVSISRKTSGSWEIKQGSGGLVACVDPVMSADKKNIWLSNLGVNMQEELKEHSTSTNSLGLPLIKQACAGEVFCVLERNEKKEELTPKQQAVESDMSLLSVLNTYNKHSYQLNPVVVNQDDYNTYYGGISNGLLWPALHNLPQYISPCFDDPELLREQWCAYVRVNYLFAINAARNSRAQDFIWIHDYHLMLCGQIMRSLESSLDIGFFIHIPFQPPANFMTKYKTVADPIMRALLRFTKVGFQTSRDRDTFVKLVAKHIKRTKIEYDSRLDRYTIEHDGWTCSLGVFPVSIKIADFVNIAKNPQTIIEAEEIKKQIMGRSADGGQLFFSVERFDYTKGISEKLRAWQRYFEKYPDRIGKDVLFQVAVTNRRSVDSYRQYQDDVLAVADLINQKFKSEDYPEWKPVIFETDGLPRTRLIAHYLAMDIGVVTPSKDGMNLVAKEMLVCNPTASLVLSTGAGTEVQLSNAQFYSEQEGKCYHRVEEISNTEAFADNFFAAATESKETRTKHGEKINQFLCVHDIDEWSDQFLDPKWTHEVISQCEVKQLGQFYGLMSRTAQVRRQIVECVLKGLPIRPHFRYSLENAKNSLESSCKSGTKLSLEADEESGEEKGFEITYDIHDELSEMEKDLAFLAFIQSDEYENAEEFIKTLGSFYEGGPVLFKNEVKQAAEMLQQGIHYNTFFTDRDGTLKSYACSYPTSVQPAYSAVIQAQFARRCATFCAIVTTAPLLHTGILEVATIPEGYYAYGASAGREWYLNPAQQFKDRSFSAIDLNLMNKVFDIIEELLERPEFRIFKWIGSGIQKHCGHITIAKQDVNGTIPSRKVIRLYEQLVKIVNDFDPNGTTLTMRESDLDFKIYVKAKLKGRIFNKGHGIRLVRERLKPNMSKGNCLVCGDNESDIPMLEECLKLAGSKVYTIWVTADTNLQEKVTQLCDRFSCSNIHFVSCPQVLLGAMAYATAHTLVDERNRKLDYYYDSDTPMDQEESSTLGASLGTSFGN | not soluble |
| MGSDKIHHHHHHMISDIPFLALLPLGAHEYHGDHLPFETDWIIAEAFAKALTVKTKKQFHIALLPVEKIGYSIEHMDVSGTQTLTFSEAIERWINIGEDCYRKGIKRFLLLNAHGGNSPLMSIVITELRKRFSMLAVATSWTRFGLPHGLMHPSQHHLDIHGGFIETSLMLYLAPEKVHMEKAKNFYNKQADMIANYQYLRAYGPHAFGWTMRDLNLQGAAGKAREATSQAGKAIFSHVLGGLRGLLDDINRFKIDAL | not soluble |
| MGSDKIHHHHHHMQLITSLDIRNSEYLSKDRLISYHHQLRLIFSLGNQVKNVLEIGIFNSLLTDILKNNGYNVTTADVDPNLKPEMILDLTTDFSLPKDKFDAIVLFQVLEHFPYEQSEEALKKLAEATKKFLVISIPYCTQYLSFQIKSSFSGRPRYLLLSVPKFWSTKPVCDEHYWEMGLKGYPKKRILNSVANAGLTVKQEFIDPSYPYHYFLVLEKTNNI | not soluble |
| AIAASSTDQNLMDLSDKDTREKLSFWDRRVDPMAPLTDRQTDSILELRAAAEETLLPAELPIEDICSLSSRSLRSSFTAALPESTEEVLLQGFQMLELHNHRIETAQQFFSWFSKLQVQMDQDEASKYRKTRDVLNGYQEQCDAILNDVNTALDHLDSLQKQYLFVSTKTGTLHEACEQLLKEQSELVDLAESIQEKLSYFNELENINTKLNSPTLSVNSEGFVPMLSKLDECIEYVSSHPNFKDYPVYLTKFKQCLSKAMQLIKSHTVNTLQNLTGQLSKRDPLGAPSA | not soluble |
